Measured values reported in article PMC3260217.

Target: NP wt (Influenza A virus H1N1 (A/WSN/33), UniProt P15682 1-498)
Experiment: SPR
Details: protein: recombinant; tags: C-terminal 6xHis; label: 5'-biotin; single strand

UUUGUUACACACACACACGCUGUG (ssRNA) [Flu1 RNA 24-mer] was tested, and the Kd was 41 ± 7 nM.
